Results as given in patent US20220119506A1 (NOVOBIND LIVESTOCK THERAPEUTICS, published 2022).
Numbering of substitutions follows the chain as printed.

T1: VP28 (White spot syndrome virus)
T1 construct: Recombinant antigen; also called Coat protein VP28
T1 chain: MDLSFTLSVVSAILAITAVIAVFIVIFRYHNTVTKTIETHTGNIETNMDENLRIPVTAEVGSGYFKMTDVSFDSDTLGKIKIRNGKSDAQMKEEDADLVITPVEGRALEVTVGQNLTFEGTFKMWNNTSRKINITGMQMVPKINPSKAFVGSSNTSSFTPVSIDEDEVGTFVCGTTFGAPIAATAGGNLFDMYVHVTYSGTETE

T2: PirA (Vibrio parahaemolyticus)
T2 construct: also called JHE-like toxin PirA-like; vp19
T2 chain: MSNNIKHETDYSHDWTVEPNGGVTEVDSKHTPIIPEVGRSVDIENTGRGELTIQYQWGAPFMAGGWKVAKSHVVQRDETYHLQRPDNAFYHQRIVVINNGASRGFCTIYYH

B1: NBX0723 (VHH)
VHH: QVQLQESGGGLVQAGGSLRLSCAASGRTFSSYPMGWFRQAPGSEREQIAGISRSGVPGKYADSVSGRFTISRDNAKNTLYLQMNSLKPEDTAVYYCAARSIYSNNYSYWGQGTQVTVSS
notes: on phage in the phage ELISA
B2: NBX0746 (VHH)
VHH: B1 VHH with P33A, Q39R, S43K, V56N, S100Q
notes: on phage in the phage ELISA
B3: NBX0745 (VHH)
VHH: B1 VHH with S43K, V56D, D62A, S100E
notes: on phage in the phage ELISA
B4: NBX0724 (VHH)
VHH: B1 VHH with E6Q, P57S
notes: on phage in the phage ELISA
B5: NBX0722 (VHH)
VHH: B1 VHH with A23R, S43K, V56D, D62A, S100Q
notes: on phage in the phage ELISA
B6: NBX0725 (VHH)
VHH: B1 VHH with E6Q, A23T, S43K, V56N, S100Q
notes: on phage in the phage ELISA
B7: NBX0730 (VHH)
VHH: QVQLQESGGGLVQTGDSLRLACAASGRTFSSYPMAWYRQAPGQEREFVAGINRNGNIPVYADSVKGRFTISRDNAKNTVYLQMNNLKPEDTAVYYCAARTIYDSHYTSWGQGTQVTVSS
notes: on phage in the phage ELISA
B8: NBX0633 (VHH)
VHH: QVQLQESGGGLVQPGGSLRLSCTASGTIFRSKSMAWYRQAPGQGRETVAHISGLGHTNYVESVKGRFTVSRDDAKNAVYLQMSSLKPEDTAVYYCNTFTAAFSWGQGTQVTVSS
notes: on phage in the phage ELISA
B9: NBX0813 (VHH)
VHH: QVQLQESGGGLVQAGGSLRLSCVVSGMLFSIRNMRWYRQAPGKQRELVAQIGSSGNTDYVESVKGRFTISRDNAKNTVYLQMNSLKPEDTAVYFCNALNYWGKGTLVTVSS
notes: on phage in the phage ELISA
B10: NBX0821 (VHH)
VHH: B9 VHH with S53T, N56A, E61G, K64E, A74P, K103E
notes: on phage in the phage ELISA
B11: NBX0817 (VHH)
VHH: QVQLQESGGGLVQAGGSLRLSCGASGGTNSNYAMGWFRQPPGKKREFVAALSWSGYNTHYADSVKGRFTISRPSARTVDLQMNNVKPEDTAVYYCAARLSGRTAGSRTYYAEGQYDYRGQGTQVTVSS
notes: on phage in the phage ELISA
B12: NBX0824 (VHH)
VHH: QVQLQESGGGLVQAGGSLRLTCAASGRTLSSYLSSYAMGWFRQAPGKERESVATITWNGDRTLYADAVKGRFTISRDNAKNTVYLQMNSVIPEDTAVYYCAADTVGRWRSTLSVRDEYDYWGQGTQVTVAS
notes: on phage in the phage ELISA
B13: NBX0820 (VHH)
VHH: QVQLQESGGGLVQTGGSLRLSCAASGRTFSNYVIGWFRQAPGKEREFVAAVGRGINSAYHATHYSESVKDRFTTSRDNAKNTGFLQMNSLKTEDTAVYYCAVTSRWGQFDRTDFNSWGQGTQVTVSS
notes: on phage in the phage ELISA
B14: NBX0602 (VHH)
VHH: QVQLQESGGGLVQAGDSLRLSCAASGRTFSRYAMGWFRQAPGKEREFVAAVDWSGGSTAYADSVKGRFTISRDNAKNTVYLQMNSLKPDDTAVYYCAARARDVYGRAWYVEDSSTYDYWGQGTQVTVSS
notes: on phage in the phage ELISA
B15: NBX0815 (VHH)
VHH: QVQLQESGGGLVQAGGSLRLSCAASGRTFSSYAMGWFRQSPGKDREFVAAVSWSGGSTYYADSLKGRFTISRDNAKNTVYLQMNSLKPEDTADYYCAAQRVMDYYRPRTESAYAYWGQGTRVTVSS
notes: on phage in the phage ELISA
B16: NBX0825 (VHH)
VHH: QVQLQESGGGVVETGGSLSVSCVASGRTFSAYTMAWFRQSPGKEREFVASMSRGSAAYYTDSVRGRFAISRVGDKNTVHLQMRDLKPEDTAVYYCAGGSPGSSQIATPEAYTYWGQGTQVTVSA
notes: on phage in the phage ELISA
B17: NBX0823 (VHH)
VHH: QVQLQQSGGGLVQTGGSLRLSCAASGSIFSIDFMGWYRQAPGNPREFVARIRGGNTYYADSVKGRFNISRDNAENTVYMQMNSLKSEDTAVYYCNAQITMRGGTWSTSEYWGQGTQVNVSS
notes: on phage in the phage ELISA
B18: NBX0621 (VHH)
VHH: QVQLQESGGGLVQAGGSLRLSCAASGRTFSTYSMGWFRQVPGKEREFVAAIRWSGGSRTYADSVKGRFTISRDNTKNVVYLQMTSLKPEDTAVYYCAADRDGYSSYAHQYDYWGQGTQVTVSS
notes: on phage in the phage ELISA
B19: NBX0628 (VHH)
VHH: B18 VHH with E6Q, A14V, T31S, S33A, R52K, K65A, S105R
notes: on phage in the phage ELISA
B20: NBX0822 (VHH)
VHH: QVQLQESGGGLVRPGDSLTLSCTYSGQTFTNSGMAWFRQRPGKEREFVAAVSRSGLGRRYADSVRGRFTITRDNGKNTANLQMDSLKPEDTAVYSCAATTLDWGPRGPYRYWGQGTQVTVSS
notes: on phage in the phage ELISA

Target: T1, VP28
Test: phage ELISA, antigen-coated wells

Binder | binding above PBS-coated wells
B1 | ≥ 50%
B2 | ≥ 50%
B3 | ≥ 50%
B4 | ≥ 50%
B5 | ≥ 50%
B6 | ≥ 50%
B7 | ≥ 50%

Target: T2, PirA
Test: phage ELISA, antigen-coated wells

Binder | binding above PBS-coated wells
B8 | ≥ 50%
B9 | ≥ 50%
B10 | ≥ 50%
B11 | ≥ 50%
B12 | ≥ 50%
B13 | ≥ 50%
B14 | ≥ 50%
B15 | ≥ 50%
B16 | ≥ 50%
B17 | ≥ 50%
B18 | ≥ 50%
B19 | ≥ 50%
B20 | ≥ 50%
